The values below come from the supplement of paper PMC10126150.

For this series, the system named is ATP. Put plainly: switch fluorescence ratio, 500 uM ATP over buffer (Cy3 cluster intensity, sum of 5 cycles each) (fold (ratio)); higher = stronger signal-on switching upon ATP binding; sequences stand for … in TCGTCGGCAGCGTCAGATGTGTATAAGAGACAGTTTTTTTTTTTTTTTTTTTTTTTTT…TC. Conditions: aptamer strand: ATP DNA aptamer (quencher-CACCTGGGGGAGTATTGCGGAGGAAGG + anchor), 100 nM annealed; ATP concentration: 500 uM. The essentials: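 Values give the fluorescence ratio for each switch-domain sequence, averaged from per-cluster ratios of summed target-cycle to summed buffer-cycle Cy3 intensity. The Cy3-labelled switching-strand clusters sat on a modified Illumina MiSeq flow-cell, were annealed to 100 nM quencher-labelled ATP aptamer, and were imaged in selection buffer, then after 15 min with 500 uM ATP at 22 °C. Five cycles ran with NaOH stripping and re-annealing between them, and clusters outside 100-1000 RFU were excluded.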

± gives the standard deviation of the averaged measurements.
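Further: ATP exposure 15 min at 22 °C before imaging.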

With TCATTTGGAA, the switch fluorescence ratio turned out to be 0.99 ± 0.025.
As to TCATTTGTTG, the switch fluorescence ratio came to 1.01 ± 0.035.
Turning to TCATTTTTGC, the switch fluorescence ratio was 0.979 ± 0.052.
For TCCAAAGAGA, the switch fluorescence ratio stood at 0.97 ± 0.039.
Take TCCAAAGAGG: the switch fluorescence ratio was found to be 0.997 ± 0.018.
For TCCAACTCCA, the switch fluorescence ratio is 1.11 ± 0.0039.
As for TCCAAGTGTG, the switch fluorescence ratio amounted to 1.03 ± 0.021.
With TCCAATTGCG, the switch fluorescence ratio was 0.953 ± 0.021.
On to TCCACATCAA, for which the switch fluorescence ratio was found to be 1.197 ± 0.0086.
In the case of TCCACGTTGG, the switch fluorescence ratio turned out to be 1.01 ± 0.0067.
For TCCAGAAAGG, the switch fluorescence ratio is 1.014 ± 0.0031.
With TCCAGATAGG, the switch fluorescence ratio was 0.997 ± 0.048.
Regarding TCCAGGGCGG, the switch fluorescence ratio was 1.06 ± 0.022.
Consider TCCAGGGGGT, for which the switch fluorescence ratio came out at 2.41 ± 0.044.
Turning to TCCAGGTAGT, the switch fluorescence ratio was found to be 1.594 ± 0.012.
For TCCAGGTGTG, the switch fluorescence ratio stood at 2.77 ± 0.42.
The same measure for TCCAGTAGGT: 1.01 ± 0.0032; for TCCAGTTAGT: 0.977 ± 0.013; for TCCATACTGG: 1.004 ± 0.0073.
As for TCCATAGGGC, the switch fluorescence ratio worked out at 1.002 ± 0.0048.
On to TCCATATGCT, for which the switch fluorescence ratio was found to be 0.9941 ± 0.0093.
Consider TCCATGGGGT, for which the switch fluorescence ratio is 0.9836 ± 0.0079.
On to TCCATTAGAT, for which the switch fluorescence ratio worked out at 1.019 ± 0.0066.
As for TCCATTGTCC, the switch fluorescence ratio worked out at 1.08 ± 0.052.
In the case of TCCATTTTAA, the switch fluorescence ratio turned out to be 1.055 ± 0.0017.
Turning to TCCCAGAACG, the switch fluorescence ratio turned out to be 1.062 ± 0.0077.
The same measure for TCCCAGCTGT: 1.12 ± 0.033.
On to TCCCGTATCC, for which the switch fluorescence ratio is 1.07 ± 0.036.
Consider TCCCTTAGAG, for which the switch fluorescence ratio was 1.037 ± 0.0024.
Regarding TCCGAACCTT, the switch fluorescence ratio came out at 1.88 ± 0.086.
For the sequence TCCGAGAGAG, the switch fluorescence ratio was found to be 1.25 ± 0.053.
Turning to TCCGCAGATT, the switch fluorescence ratio was 4.02 ± 0.047.
As for TCCGGCTATT, the switch fluorescence ratio is 1.108 ± 0.0087.
Then TCCGGGAGTG, with 1.078 ± 0.0027; and TCCGGGCAGG, with 1.14 ± 0.023.
TCCGGGCTGG: the switch fluorescence ratio was 1.02 ± 0.013.
The same measure for TCCGGGGGAG: 1 ± 0.023; for TCCGGGGGAT: 1.32 ± 0.38.
As for TCCGGGGGTA, the switch fluorescence ratio is 1.12 ± 0.12.
Regarding TCCGGGTAGG, the switch fluorescence ratio amounted to 1.036 ± 0.0049.
For TCCGGGTATT, the switch fluorescence ratio stood at 1.078 ± 0.0025.
Consider TCCGGTTGCA, for which the switch fluorescence ratio is 2.49 ± 0.12.
Then TCCGTGTCTA, with 1.07 ± 0.022; and TCCGTGTGGT, with 1.07 ± 0.051.
In the case of TCCGTTGGGG, the switch fluorescence ratio was 1.05 ± 0.15.
Then TCCTCAAGTT, with 1.23 ± 0.015; and TCCTCAGGAT, with 1.02 ± 0.018; and TCCTCGTCTC, with 1.69 ± 0.038.
Regarding TCCTGAAAAC, the switch fluorescence ratio was found to be 1.1 ± 0.087.
Regarding TCCTGAAATT, the switch fluorescence ratio was determined as 0.987 ± 0.015.
Consider TCCTGAGGAT, for which the switch fluorescence ratio is 1 ± 0.058.
In the case of TCCTGCATGG, the switch fluorescence ratio was 1.22 ± 0.037.
In the case of TCCTGGGAT, the switch fluorescence ratio was determined as 1.01 ± 0.03.
As for TCCTGGGTAT, the switch fluorescence ratio stood at 1.69 ± 0.98.
Consider TCCTGGGTTT, for which the switch fluorescence ratio stood at 1.27 ± 0.48.
Consider TCCTGTACTG, for which the switch fluorescence ratio worked out at 1.04 ± 0.062.
As for TCCTTAGTTC, the switch fluorescence ratio is 0.969 ± 0.035.
On to TCCTTCTTTA, for which the switch fluorescence ratio is 1.38 ± 0.43.
Regarding TCCTTGGTCG, the switch fluorescence ratio came out at 1.04 ± 0.031.
Take TCGAAAAGGG: the switch fluorescence ratio came out at 0.992 ± 0.015.
Consider TCGAAACGGG, for which the switch fluorescence ratio was 1.14 ± 0.24.
As for TCGAAGAGCG, the switch fluorescence ratio stood at 0.976 ± 0.045.
With TCGAAGCCAG, the switch fluorescence ratio came to 1.061 ± 0.0045.
As for TCGAAGCCTA, the switch fluorescence ratio came to 1.17 ± 0.02.
Regarding TCGAAGGGTG, the switch fluorescence ratio is 0.999 ± 0.04.
With TCGAAGTATC, the switch fluorescence ratio turned out to be 1.12 ± 0.058.
Regarding TCGAATGGAT, the switch fluorescence ratio came to 0.991 ± 0.011.
On to TCGAATGGGG, for which the switch fluorescence ratio was 0.961 ± 0.014.
TCGACAGTCC: the switch fluorescence ratio amounted to 1.037 ± 0.0085.
With TCGACGGGTG, the switch fluorescence ratio came to 1.02 ± 0.043.
For TCGACTGCGT, the switch fluorescence ratio stood at 1.056 ± 0.005.
TCGAGGAAGT: the switch fluorescence ratio came out at 0.999 ± 0.062.
Regarding TCGAGGATGT, the switch fluorescence ratio is 0.976 ± 0.019.
As for TCGAGGGAAC, the switch fluorescence ratio came to 1.03 ± 0.018.
Take TCGAGGGCGA: the switch fluorescence ratio was 1.146 ± 0.0097.
On to TCGAGGGTAG, for which the switch fluorescence ratio was determined as 1.02 ± 0.018.
Consider TCGAGGTCGA, for which the switch fluorescence ratio was found to be 1.01 ± 0.039.
On to TCGAGTTG, for which the switch fluorescence ratio was found to be 0.9972 ± 0.0093.
TCGATACTTT: the switch fluorescence ratio is 1.03 ± 0.021.
The same measure for TCGATCCTGA: 0.998 ± 0.032.
TCGATGGACT: the switch fluorescence ratio amounted to 1.03 ± 0.014.
Take TCGATGGATG: the switch fluorescence ratio was found to be 1.025 ± 0.0058.
The same measure for TCGATGGCAG: 1.059 ± 0.0033; for TCGATGTGTT: 0.9592 ± 0.0086; for TCGATGTTGG: 0.984 ± 0.03.
With TCGATTGGGG, the switch fluorescence ratio turned out to be 0.9682 ± 0.0089.
For TCGCATCCTT, the switch fluorescence ratio was 0.989 ± 0.017.
TCGCATTTTT: the switch fluorescence ratio was found to be 1.11 ± 0.13.
On to TCGCCCTCCA, for which the switch fluorescence ratio worked out at 1.26 ± 0.12.
Consider TCGCCGAAAT, for which the switch fluorescence ratio was found to be 1.7 ± 0.35.
Regarding TCGCGAATGG, the switch fluorescence ratio was 1.11 ± 0.02.
Then TCGCGGCTAT, with 1.56 ± 0.61; and TCGCGTTTGC, with 1.06 ± 0.054; and TCGCTATGCC, with 0.991 ± 0.13.
Turning to TCGCTCACGG, the switch fluorescence ratio worked out at 1.03 ± 0.021.
As to TCGCTGGTTG, the switch fluorescence ratio worked out at 0.996 ± 0.022.
As for TCGCTTGTTG, the switch fluorescence ratio came out at 1.03 ± 0.022.
Take TCGCTTTT: the switch fluorescence ratio was found to be 1.02 ± 0.02.
In the case of TCGGAAAATA, the switch fluorescence ratio was 1.01 ± 0.026.
TCGGAAAGGA: the switch fluorescence ratio stood at 0.9814 ± 0.0016.
TCGGAATGGC: the switch fluorescence ratio worked out at 1.27 ± 0.23.
Turning to TCGGACTAGG, the switch fluorescence ratio stood at 1 ± 0.031.
The same measure for TCGGAGAATG: 1.003 ± 0.01.
For TCGGAGATTT, the switch fluorescence ratio was 0.97302 ± 0.00083.
As for TCGGAGGCGG, the switch fluorescence ratio is 1.007 ± 0.0069.
Regarding TCGGAGGGAG, the switch fluorescence ratio came to 1.02 ± 0.056.
In the case of TCGGAGTGCG, the switch fluorescence ratio was 1.006 ± 0.0062.
Consider TCGGAGTGCT, for which the switch fluorescence ratio came out at 1.04 ± 0.042.
With TCGGAGTGGC, the switch fluorescence ratio stood at 1.2 ± 0.19.
Consider TCGGAGTTAG, for which the switch fluorescence ratio worked out at 1.04 ± 0.022.
Take TCGGATAGAG: the switch fluorescence ratio was determined as 0.949 ± 0.058.
Take TCGGATCATT: the switch fluorescence ratio was found to be 0.9775 ± 0.0039.
The same measure for TCGGATGAGG: 1 ± 0.042; for TCGGATGCGT: 1.03 ± 0.035; for TCGGCACATT: 1.46 ± 0.63.
Take TCGGCATCGG: the switch fluorescence ratio turned out to be 1 ± 0.021.
Then TCGGCCTGCT, with 1.01 ± 0.021.
With TCGGCGGCTG, the switch fluorescence ratio was determined as 0.984 ± 0.01.
The same measure for TCGGCGGGTC: 0.9973 ± 0.0015.
With TCGGCTATGG, the switch fluorescence ratio was found to be 1.01 ± 0.011.
